# Test results: paper PMC4635569
# pKd: −log10 of the molar value. Read-outs that look alike come from different tables or passages of the source.
# How the values were obtained:
# [1] = target: human C3b (human) (UniProt P01024); experiment: SPR; C3b (~250 RU) or C3d (~70 RU) amine coupled to adjacent flow cells of a Biacore C1 chip; FH preincubated with or without a 2-fold molar excess of PspCN injected (90 s, 30 μl/min, 400 s dissociation); 1:1 binding model
# [2] = target: human C3d (human) (UniProt P01024); experiment: as above
# human C3d (human), sequence (P01024 1002-1303): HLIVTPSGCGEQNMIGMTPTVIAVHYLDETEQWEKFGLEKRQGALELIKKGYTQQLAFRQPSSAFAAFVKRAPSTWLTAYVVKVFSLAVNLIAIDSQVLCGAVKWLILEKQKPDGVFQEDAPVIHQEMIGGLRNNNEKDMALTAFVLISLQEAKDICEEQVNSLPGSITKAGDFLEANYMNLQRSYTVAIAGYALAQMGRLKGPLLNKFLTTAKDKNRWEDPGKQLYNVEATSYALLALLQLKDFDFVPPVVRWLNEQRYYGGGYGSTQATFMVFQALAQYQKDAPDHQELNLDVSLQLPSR
# [3] = target: C3d C3d (Homo sapiens) (UniProt P01024); conditions: cited from earlier work
# C3d C3d (Homo sapiens), sequence (P01024 1002-1303): as above
# [4] = target: C3b C3b (Homo sapiens) (UniProt P01024); conditions: cited from earlier work
# C3b C3b (Homo sapiens), sequence (P01024 566-670): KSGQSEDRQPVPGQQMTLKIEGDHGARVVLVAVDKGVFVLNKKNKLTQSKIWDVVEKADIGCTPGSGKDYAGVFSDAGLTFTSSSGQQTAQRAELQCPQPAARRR
# [5] = target: human C3b (human) (UniProt P01024); experiment: SPR; C3b (~250 RU) or C3d (~70 RU) amine coupled to adjacent flow cells of a Biacore C1 chip; FH preincubated with or without a 2-fold molar excess of PspCN injected (90 s, 30 μl/min, 400 s dissociation); 1:1 binding model; remark: listed apart in the source
# [6] = target: (D39)PspCN, D39 PspC residues 37-140 after removal of the His6-SUMO tag (Streptococcus pneumoniae D39); experiment: SEC-MALS; 4.6 μM in PBS of FH, PspCN or a 1:1 complex; Superose12 10/300 GL column, 0.4 ml/min
# [7] = target: His6-SUMO-tagged D39 PspC residues 37-140 (Streptococcus pneumoniae D39); experiment: SPR; PspC-derived proteins immobilised via N-terminal His6-SUMO tags on a Ni2+-loaded Biacore NTA chip (~150 RU); FH, rFH or rFH fragments flowed over (180 s, 100 μl/min, 1500 s dissociation); 25°C; 10 mM HEPES, 150 mM NaCl, 0.05% P20, pH 7.4, 50 μM EDTA; 1:1 binding model; equilibrium method for FH 8–9
# [8] = target: plasma-derived human complement factor H (human) (UniProt P08603)
# human C3b (human), sequence (P01024 23-667, chain 1 of 2): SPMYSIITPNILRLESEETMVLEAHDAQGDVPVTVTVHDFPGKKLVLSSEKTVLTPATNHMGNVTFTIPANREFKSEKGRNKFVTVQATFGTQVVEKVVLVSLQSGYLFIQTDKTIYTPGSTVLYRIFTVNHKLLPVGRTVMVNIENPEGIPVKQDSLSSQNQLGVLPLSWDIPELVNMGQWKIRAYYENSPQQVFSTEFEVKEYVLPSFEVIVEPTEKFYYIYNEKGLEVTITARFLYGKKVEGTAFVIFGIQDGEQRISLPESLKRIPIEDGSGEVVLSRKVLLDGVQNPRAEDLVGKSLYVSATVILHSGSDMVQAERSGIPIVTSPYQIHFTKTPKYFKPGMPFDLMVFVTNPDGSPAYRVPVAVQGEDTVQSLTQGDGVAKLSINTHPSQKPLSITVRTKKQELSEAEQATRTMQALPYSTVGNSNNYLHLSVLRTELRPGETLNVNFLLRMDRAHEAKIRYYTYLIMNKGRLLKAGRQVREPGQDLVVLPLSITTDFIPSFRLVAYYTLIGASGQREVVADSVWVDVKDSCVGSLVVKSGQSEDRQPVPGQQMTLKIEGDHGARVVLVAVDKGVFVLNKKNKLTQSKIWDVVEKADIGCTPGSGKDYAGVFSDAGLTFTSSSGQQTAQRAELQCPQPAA
# human C3b (human), sequence (P01024 749-1663, chain 2 of 2): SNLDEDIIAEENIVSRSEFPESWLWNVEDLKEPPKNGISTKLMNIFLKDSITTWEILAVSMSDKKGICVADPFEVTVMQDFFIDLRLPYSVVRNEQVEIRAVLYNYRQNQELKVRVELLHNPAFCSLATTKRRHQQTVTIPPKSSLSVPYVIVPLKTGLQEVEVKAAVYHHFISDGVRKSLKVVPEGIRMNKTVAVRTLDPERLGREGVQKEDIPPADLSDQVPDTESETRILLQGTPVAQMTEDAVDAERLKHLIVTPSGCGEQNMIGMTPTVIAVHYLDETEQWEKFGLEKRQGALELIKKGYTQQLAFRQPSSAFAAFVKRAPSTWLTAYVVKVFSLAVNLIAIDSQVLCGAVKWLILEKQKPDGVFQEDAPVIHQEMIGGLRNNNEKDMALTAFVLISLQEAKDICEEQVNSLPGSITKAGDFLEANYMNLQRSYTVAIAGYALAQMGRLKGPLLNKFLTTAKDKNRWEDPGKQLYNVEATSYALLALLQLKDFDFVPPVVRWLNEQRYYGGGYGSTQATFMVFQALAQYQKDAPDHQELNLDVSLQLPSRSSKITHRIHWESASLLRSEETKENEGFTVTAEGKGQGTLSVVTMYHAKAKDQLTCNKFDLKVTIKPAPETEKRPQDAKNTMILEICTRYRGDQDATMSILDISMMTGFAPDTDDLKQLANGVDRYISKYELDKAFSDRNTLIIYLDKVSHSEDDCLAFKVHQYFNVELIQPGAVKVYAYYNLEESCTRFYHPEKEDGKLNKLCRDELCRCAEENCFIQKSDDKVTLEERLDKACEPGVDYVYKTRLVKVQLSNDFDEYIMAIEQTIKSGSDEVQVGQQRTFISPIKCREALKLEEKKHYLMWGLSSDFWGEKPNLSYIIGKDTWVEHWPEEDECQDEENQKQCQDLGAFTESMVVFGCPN
substance,measurement,setting,value
(D39)PspCN:rFH complex (from UniProt P08603 19-1231),pKd,[1],6.55
same,pKd,[2],5.66
(Tigr4)PspC_(37–179):FH complex (from UniProt P08603 19-1231),pKd,[1],6.55
same,pKd,[2],5.92
Complement factor H CCP 19-20 (from UniProt P08603),pKd,[3],5.70
same,pKd,[4],5.70
(D39)PspCN:FH(D1119G) complex (from UniProt P08603 19-1231),pKd,[5],6.48
same,pKd,[1],6.49
plasma-derived human complement factor H (from UniProt P08603 19-1231) (natural protein),stoichiometry N,[6],1 FH:PspCN
same,dissociation over 30 min (off-rate) (% over 30 min),[7],< 0.2
FH 8–15 (domain or fragment),pKd,[7],9.00
FH 8–9 (domain or fragment),pKd,[7],7.52
"(D39)PspCN, D39 PspC residues 37-140 after removal of the His6-SUMO tag (domain or fragment)",inhibition of acidified-serum lysis of PNH-like (AET-treated) human erythrocytes by increasing concentrations of (D39)PspCN; FH of the serum,[8],28 nM
(D39)PspCN:FH complex (plasma-derived FH) (from UniProt P08603 19-1231),pKd,[1],6.80
same,ratio of KD values for FH versus FH-PspCN,[1],2.04
same,pKd,[2],5.64
